Patent publication US12648964B2, “Chimeric Tim receptors and uses thereof” (CERO THERAPEUTICS HOLDINGS, INC., priority 2020, dated 2026)
Entries after “also recorded” stand apart in the source; their conditions may differ. Read-outs that look alike come from different tables or passages of the source.

Tests used:
Kuramochi cells [1] = details: BRCA-2 mutated Kuramochi cell line
Protocol: (§1) In ovarian tumors, poly (ADP-ribose) polymerase (PARP) inhibitors, such as Niraparib, are clinically approved drugs which target DNA damage response pathways. Responses are rarely complete, with relapse common after treatment. To induce Ptd-Ser exposure, BRCA-2 mutated Kuramochi cell line was treated with therapeutic doses of the PARP inhibitor Niraparib.

Kuramochi cells [2] = details: 1.56 or 25 μM Niraparib, 48 hours, vs DMSO
Protocol: FIG. 7A: Flow cytometry measurement of surface PtdSer. Kuramochi cells were treated with 1.56 or 25 μM Niraparib or with equivalent volume of DMSO (control). 48 hours later samples were trypsinized and stained using a Tim4-Fc followed by a fluorescently-labeled secondary antibody to the Tim4-Fc. […] All data were collected via IncuCyte.
as §1

E7 TCR-T cells [3] = assay: E7 TCR-T cell activation markers CD25/CD69 after co-culture with E7 peptide-pulsed CER-T cells (flow cytometry); format: cell-based
Protocol: FIG. 2: T cells containing chimeric Tim4 receptors with a TLR intracellular signaling domain added to the CD3ζ signaling domain (and optionally a CD28 signaling domain) are strong stimulators of autologous E7-specific T cell responses. CER-T cells were pulsed with E7 peptide and tested for their capacity to trigger an autologous E7-specific T cell response. CD25, a T cell activation marker, was evaluated on E7 TCR-T cells, 24 hours after CER-T cells were pulsed with E7 peptides.
FIG. 3: T cells containing chimeric Tim4 receptors with a TLR intracellular signaling domain added to the CD3ζ signaling domain (and optionally a CD28 signaling domain) are strong stimulators of autologous E7-specific T cell responses. CER-T cells were pulsed with E7 peptide and tested for their capacity to trigger an autologous E7-specific T cell response. CD69, an early marker for T cell activation, was evaluated on E7 TCR-T cells, 24 hours after CER-T cells were pulsed with E7 peptides.
(§2) Chimeric Tim4 receptor-T cells were tested to determine whether they can capture and present soluble antigens and trigger activation and proliferation of recombinant E7-restricted T cell clones in a co-culture system. First expression of Tim4 was confirmed on transduced CER T cells by flow cytometry. Tim4 binding domain-CD28 transmembrane-CD28 signaling domain-CD3z signaling domain (CTX247) and Tim4 binding domain-CD28 signaling domain-CD3z signaling domain-TLR2 signaling domain (CTX1107) were stained for Tim4 and EGFR, a transduction marker encoded on each vector. […] E7 TCRs proliferate in response to APCs pulsed with E7 peptide through MHC class I. For autologous APCs, CD4+ and CD8+ chimeric Tim4 receptor T cell products transduced with different Tim-4 chimeric receptors were pulsed with a pool of 15-mer peptides containing 11-mer overlaps derived from the E7 protein from HPV16 or vehicle. Chimeric Tim4 receptor T cells were pulsed at 37° C. for 4 hrs with E7 peptides and tested for their capacity to trigger E7-specific activation and proliferation. E7-TCR cell surface activation marker responses were evaluated by flow cytometry 24 hours following co-culture with chimeric Tim4 receptor-T cell products. After an additional 5 days of co-culture, proliferative responses were assessed by Cell Trace (CT) Violet dilution.
A higher frequency of E7-TCR containing T cells expressed both activation markers 24 hours after co-culture (FIG. 2).

E7 TCR-T cells [4] = assay: E7-specific T cell proliferation by CT Violet dye dilution after co-culture with E7 peptide-pulsed CER-T cells; format: cell-based; details: for stimulation / proliferation responses of E7-specific T cells: CER-T pulsed with E7 peptides, CT Violet dilution after 6 days
Protocol: FIG. 1A: a schematic of pCTX247 and pCTX1107 chimeric Tim4 receptors and pCTX1107 T cells pulsed with E7 peptides and co-cultured with E7-specific T cells to evaluate their antigen presentation capacity. FIG. 1B: E7-specific proliferation responses were measured by CT Violet dye dilution after 6 days in the presence of autologous CER-T (TLR containing or non-containing CERs) pulsed with E7 peptides. […] All data collected by FACS. Cell tracing show E7 TCR-T cells using an anti-mouse TCRb. E7 TCR-T cells were labeled with CT Violet at the time of co-culture.
as §2, with “dilution. […]” for “dilution.”

phosphatidylserine = details: cited from earlier work; for binding at High PtdSer: high phosphatidylserine density; for binding at Low PtdSer: low phosphatidylserine density
[5] = 24 hours after CER-T cells pulsed with E7 peptides

NC(=O)c1cccc2cn(-c3ccc([C@@H]4CCCNC4)cc3)nc12 [Niraparib]
inhibition of growth of Kuramochi cells (Kuramochi cells [1]): effective in inhibiting growth | surface PtdSer (membrane phospholipid symmetry) (Kuramochi cells [2]): elicits changes in membrane phospholipid symmetry, in a dose dependent manner

B1: pCTX1107: Tim4 binding domain-CD28 signaling domain-CD3z signaling domain-TLR2 signaling domain (protein)
chain: ETVVTEVLGHRVTLPCLYSSWSHNSNSMCWGKDQCPYSGCKEALIRTDGMRVTSRKSAKYRLQGTIPRGDVSLTILNPSESDSGVYCCRIEVPGWFNDVKINVRLNLQRASTTTHRTATTTTRRTTTTSPTTTRQMTTTPAALPTTVVTTPDLTTGTPLQMTTIAVFTTANTCLSLTPSTLPEEATGLLTPEPSKEGPILTAESETVLPSDSWSSVESTSADTVLLTSKESKVWDLPSTSHVSMWKTSDSVSSPQPGASDTAVPEQNKTTKTGQMDGIPMSMKNEMPISQRSKRSRLLHSDYMNMTPRRPGPTRKHYQPYAPPRDFAAYRSRVKFSRSADAPAYQQGQNQLYNELNLGRREEYDVLDKRRGRDPEMGGKPRRKNPQEGLYNELQKDKMAEAYSEIGMKGERRRGKGHDGLYQGLSTATKDTYDALHMQALPPRHRFHGLWYMKMMWAWLQAKRKPRKAPSRNICYDAFVSYSERDAYWVENLMVQELENFNPPFKLCLHKRDFIPGKWIIDNIIDSIEKSHKTVFVLSENFVKSEWCKYELDFSHFRLFDENNDAAILILLEPIEKKAIPQRFCKLRKIMNTKTYLEWPMDEAQREGFWVNLRAAIKS
modifications: left off: large carriers
CD25 on E7 TCR-T cells (E7-specific activation) (E7 TCR-T cells [3]; [5]): strong stimulator of E7-specific activation | CD69 on E7 TCR-T cells (E7-specific activation) (E7 TCR-T cells [3]; [5]): strong stimulator of E7-specific activation | CD25 and CD69 upregulation (E7-specific activation) (E7 TCR-T cells [3]; 24 hours after co-culture, flow cytometry): strong stimulatory of E7-specific activation | E7 TCR-T cell surface activation markers CD25 and CD69 upregulated (E7 TCR-T cells [3]; 24 hrs following co-culture, controls 23.1%): 41.2% | stimulation / proliferation responses of E7-specific T cells (E7 TCR-T cells [4]): stimulatory for E7-specific T cells; also recorded: triggered proliferation responses of E7-specific TCRs | percentage of dividing E7-TCR-T cells (E7 TCR-T cells [4]; by 6 days, controls 8%): 44%

B2: Tim-1: T-cell immunoglobulin and mucin domain containing protein 1, phosphatidylserine receptor (protein, UniProt Q96D42 21-364, looked up)
Hepatitis A virus cellular …: SVKVGGEAGPSVTLPCHYSGAVTSMCWNRGSCSLFTCQNGIVWTNGTHVTYRKDTRYKLLGDLSRRDVSLTIENTAVSDSGVYCCRVEHRGWFNDMKITVSLEIVPPKVTTTPIVTTVPTVTTVRTSTTVPTTTTVPMTTVPTTTVPTTMSIPTTTTVLTTMTVSTTTSVPTTTSIPTTTSVPVTTTVSTFVPPMPLPRQNHEPVATSPSSPQPAETHPTTLQGAIRREPTSSPLYSYTTDGNDTVTESSDGLWNNNQTQLFLEHSLLTANTTKGIYAGVCISVLVLLALLGVIIAKKYFFKKEVQQLSVSFSSLQIKALQNAVEKEVQAEDNIYIENSLYATD
binding at High PtdSer (phosphatidylserine): Strong | binding at Low PtdSer (phosphatidylserine): Moderate | binding at Low PtdSer (phosphatidylserine; listed as Tim1 binding domain): binds more strongly to a lower phosphatidylserine density | binding at Moderate PtdSer (phosphatidylserine; moderate phosphatidylserine density): Strong

B3: pCTX247: Tim4 binding domain-CD28 transmembrane-CD28 signaling domain-CD3z signaling domain (protein)
chain: ETVVTEVLGHRVTLPCLYSSWSHNSNSMCWGKDQCPYSGCKEALIRTDGMRVTSRKSAKYRLQGTIPRGDVSLTILNPSESDSGVYCCRIEVPGWFNDVKINVRLNLQRASTTTHRTATTTTRRTTTTSPTTTRQMTTTPAALPTTVVTTPDLTTGTPLQMTTIAVFTTANTCLSLTPSTLPEEATGLLTPEPSKEGPILTAESETVLPSDSWSSVESTSADTVLLTSKESKVWDLPSTSHVSMWKTSDSVSSPQPGASDTAVPEQNKTTKTGQMDGIPMSMKNEMPISQFWVLVVVGGVLACYSLLVTVAFIIFWVRSKRSRLLHSDYMNMTPRRPGPTRKHYQPYAPPRDFAAYRSRVKFSRSADAPAYQQGQNQLYNELNLGRREEYDVLDKRRGRDPEMGGKPRRKNPQEGLYNELQKDKMAEAYSEIGMKGERRRGKGHDGLYQGLSTATKDTYDALHMQALPPR
stimulation / proliferation responses of E7-specific T cells (E7 TCR-T cells [4]): not stimulatory

B4: Tim-4: T-cell immunoglobulin and mucin domain containing protein 4, phosphatidylserine receptor (protein, UniProt Q96H15 25-378, looked up)
T-cell immunoglobulin and …: ETVVTEVLGHRVTLPCLYSSWSHNSNSMCWGKDQCPYSGCKEALIRTDGMRVTSRKSAKYRLQGTIPRGDVSLTILNPSESDSGVYCCRIEVPGWFNDVKINVRLNLQRASTTTHRTATTTTRRTTTTSPTTTRQMTTTPAALPTTVVTTPDLTTGTPLQMTTIAVFTTANTCLSLTPSTLPEEATGLLTPEPSKEGPILTAESETVLPSDSWSSVESTSADTVLLTSKESKVWDLPSTSHVSMWKTSDSVSSPQPGASDTAVPEQNKTTKTGQMDGIPMSMKNEMPISQLLMIIAPSLGFVLFALFVAFLLRGKLMETYCSQKHTRLDYIGDSKNVLNDVQHGREDEDGLFTL
Cooperativity (phosphatidylserine): Yes | binding at High PtdSer (phosphatidylserine): Strong | binding at Low PtdSer (phosphatidylserine): Minimal | binding at Low PtdSer (phosphatidylserine; listed as Tim4 binding domain): binds minimally
